# From patent publication US20060104971A1, “Multivalent lymphotoxin beta receptor agonists and therapeutic uses thereof” (Biogen Idec MA Inc., priority 2002, published 2006)
# Molecular target: lymphotoxin beta receptor on the surface of HT29 cells (human) (UniProt P36941)
# Experiment: cell-based or functional assay
# lymphotoxin beta receptor on the surface of HT29 cells (human), sequence (P36941 31-435): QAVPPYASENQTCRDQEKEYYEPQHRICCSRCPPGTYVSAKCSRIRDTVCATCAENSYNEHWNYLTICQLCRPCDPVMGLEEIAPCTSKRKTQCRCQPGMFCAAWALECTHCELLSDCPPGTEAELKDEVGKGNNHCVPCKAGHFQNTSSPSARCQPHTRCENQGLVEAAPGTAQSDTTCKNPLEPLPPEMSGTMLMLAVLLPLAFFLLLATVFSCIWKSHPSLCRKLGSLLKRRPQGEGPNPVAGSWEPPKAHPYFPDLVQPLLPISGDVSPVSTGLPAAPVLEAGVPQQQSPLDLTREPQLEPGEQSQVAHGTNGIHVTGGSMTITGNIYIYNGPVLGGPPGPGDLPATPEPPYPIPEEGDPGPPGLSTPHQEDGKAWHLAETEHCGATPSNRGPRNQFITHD
row,Substance,"minimum A450 (plateau of HT29 cell growth, MTT, with interferon gamma)"
1,humanized BHA10 antibody,0.9 A450
2,humanized CBE11 antibody,0.8 A450
